{"source": "paper PMC8882047", "molecules": {"B1": {"name": "human α2-antiplasmin (natural protein)", "chain": "NQEQVSPLTLLKLGNQEPGGQTALKSPPGVCSRDPTPEQTHRLARAMMAFTADLFSLVAQTSTCPNLILSPLSVALALSHLALGAQNHTLQRLQQVLHAGSGPCLPHLLSRLCQDLGPGAFRLAARMYLQKGFPIKEDFLEQSEQLFGAKPVSLTGKQEDDLANINQWVKEATEGKIQEFLSGLPEDTVLLLLNAIHFQGFWRNKFDPSLTQRDSFHLDEQFTVPVEMMQARTYPLRWFLLEQPEIQVAHFPFKNNMSFVVLVPTHFEWNVSQVLANLSWDTLHPPLVWERPTKVRLPKLYLKHQMDLVATLSQLGLQELFQAPDLRGISEQSLVVSGVQHQSTLELSEVGVEAAAATSIAMSRMSLSSFSVNRPFLFFIFEDTTGLPLFVGSVRNPNPSAPRELKEQQDSPGNKDFLQSLKGFPRGDKLFGPDLKLVPPMEEDYPQFGSPK"}}, "key": {"[1]": {"molecular_target": "human plasmin (purified) (human)", "assay": "enzyme inhibition titration"}, "[2]": {"molecular_target": "human plasmin (purified) (human)", "assay": "enzyme inhibition titration", "remark": "listed apart in the source"}, "[3]": {"molecular_target": "human plasmin (purified) (human)", "assay": "enzyme inhibition progress curves"}}, "note": "Read-outs that look alike come from different tables or passages of the source.", "data": [{"molecule": "miropin (recombinant, tag-free) (from UniProt G8UQY8 1-432) (natural protein)", "values": [{"measurement": "stoichiometry of inhibition (SI)", "setting": "[1]", "value": 2.3}]}, {"molecule": "B1", "values": [{"measurement": "stoichiometry of inhibition (SI)", "setting": "[2]", "value": 1.1}, {"measurement": "kon", "setting": "[3]", "value": "1.3e+06", "unit": "M⁻¹ s⁻¹"}]}]}
